Results reported in patent publication US20090062190A1, “Transcriptional Regulation of Cytokines by LITAF and STAT (6)(B)” (priority 2005, published 2009).

Assays:
[1] = system: THP-1 cells; test: Western blot of cytokine protein levels in transfected THP-1 cells (FIG. 6d); format: cell-based, human; conditions: overexpression in THP-1 cells
Text: (§1) Since both LITAF and STAT6(B) were found in the nucleus (FIG. 5), it was further investigated whether they act separately or in concert in mediating activation of TNF-α. While studying the complex, a cytokine array was employed to look at effects on other cytokines (FIG. 6a-6c.). The assay was preformed as follows. Using an empty vector as a control (FIG. 6b1), DNA of LITAF (full length, FIG. 6b2), STAT6(B) (full length; FIG. 6b3) or both full length of LITAF+STAT6(B) (FIG. 6b4), respectively, was transfected or co-transfected into THP-1 cells. Conditioned medium from each treated cell type was then prepared and incubated with membranes containing an array of 44 human protein cytokine antibodies (FIG. 6a). Autoradiographs were scanned, and the density of each cytokine at the corresponding position was determined. […] The relative intensities of each cytokine were normalized to control spots on the same membrane. Major increases or decreases among cytokines are represented graphically in FIG. 6c. […] In order to confirm these findings at the protein level we selected the four most strongly affected cytokines, IL-1α, IL-10, MCP-2 and RANTES and, under the same experimental conditions, measured their protein levels by Western blots.

[2] = system: THP-1 cells; test: Human cytokine antibody array of conditioned medium from transfected THP-1 cells; format: cell-based; conditions: single transfection
Text: as §1

[3] = system: MCP-1 promoter; test: Luciferase assay of MCP-1 promoter activity after transient transfection (FIG. 16); format: cell-based
Text: To show this hypothesis, monocyte chemoattractant protein-1 (MCP-1), an important component of the inflammatory process, is selected to determine whether its LPS-triggered transcriptional regulation parallels observations for TNF. Recent studies have shown that the MCP-1 promoter activity can be regulated by NF-KB, STAT1, CEB/P homologous protein (CHOP), heme oxygenase-1 (HO-1) or activated protein C (APC) (Kim, et al, Clin Exp Immunol, 140:450-460, 2005; Jaruga, et al., Am J Physiol Gastrointest Liver Physiol, 287:G471-479, 2004, Abraham, et al., J Neuroimmunol, 160:219-221, 2005; Kanakiriya, et al., Am J Physiol Renal Physiol, 284:F:546-554, 2003). However, the precise LPS signaling pathways leading to MCP-1 induction have not been fully identified. In Examples 1-3, above, the regulation of LPS-induced inflammatory cytokine expression was shown. […] Thus, CTCCC represents a specific sequence in cytokine promoters to which LITAF binds for activity. […] Thus, short peptides with amino acids designed and synthesized based on the potential binding domain of LITAF and STAT6(B) jointly enhance MCP-1 promoter activity.

[4] = system: VEGF promoter; test: VEGF promoter activity / VEGF expression in transfected U2OS cells; format: cell-based, human; conditions: transient transfection into U2OS cells with pcVEGF or pEVEGF
Procedure: To determine that this activation occurred at the transcriptional level, VEGF promoter activity assays were performed. A full length VEGF sequence, with or without its enhancer element (−2040˜+1), named pcVEGF or pEVEGF, was cloned into pcDNA3 plasmid. The cloned DNA with LITAF and/or STAT6(B) DNAs were transiently co-transfected into U2OS cells as described in FIG. 11a.

[5] = system: TNF-α promoter; test: TNF-α promoter luciferase assay in transfected U2OS cells; format: cell-based, human; conditions: transfection alone
Procedure: In order to characterize the functional importance of LITAF in the LITAF/STAT6(B) complex, the effect of the complex was examined, with and without silenced LITAF, on TNF-α promoter activity. U2OS cells containing the TNF-promoter linked to luciferase were transiently transfected with LITAF alone, STAT6(B) alone, or both DNAs as described. TNF-α promoter activity was analyzed via luciferase activity. […] The TNF-α concentrations in the supernatants of these transfected THP-1 cells was also measured. […] They further indicate that LITAF might play a leading role in cytokine regulation after the LITAF-STAT6(B) complex translocates to the nucleus in the cells.

[6] = system: Porcine aortic endothelial (PAE) cells expressing VEGFR-2 spheroids; test: In vitro angiogenesis/tubulogenesis assay with supernatants of transfected THP-1 cells; format: cell-based; conditions: supernatant from transfected THP-1 cells, 2 days
Procedure: In Vitro Angiogenesis/Tubulogenesis assay of VEGF. To expand the observations that STAT6(B) is a potent stimulator of VEGF, and that the LITAF-STAT6(B) complex is inhibitory, culture supernatant fluids of LITAF-, STAT6(B)- or LITAF-STAT6(B)-transfected THP1 cells were tested in an in vitro angiogenesis/tubulogenesis assay. The assay was preformed as follows. Porcine aortic endothelial (PAE) cells expressing VEGFR-2 spheroids were generated as described in the art (Mayer and Rahimi, Ann. NY Acad. Sci, 995:200-207, 2003). A defined number of cells were suspended in DMEM containing 1% fetal bovine serum and 0-0.24% (w/v) carboxymethylcellulose (4000 centipoise) in non-adherent round-bottom 96-well plates under standard cell culture conditions. After 24 hours all cells formed one single spheroid per well (about 750 cells/spheroid). Spheroids were cultured for 2 days before using them in the in vitro angiogenesis assay in the following manner Spheroids containing about 750 cells were embedded in collagen gels. Eight volumes of collagen were mixed with 1 volume of 10×HEPES-buffered saline solution containing 10% 10×DMEM with phenol red. […]
It was determined whether VEGF, induced by STAT6(B), was active and capable of inducing angiogenesis and that the LITAF-STAT6(B) complex effect would inhibit this activity. […]

B1: LITAF: LPS-induced TNF-α factor, SEQ ID NO: 1; full length DNA transfected for overexpression (protein, listed as Homo sapiens)
chain: MSVPGPYQAATGPSSAPSAPPSYEETVAVNSYYPTPPAPMPGPTTGLVTGPDGKGMNPPSYYTQPAPIPNNNPITVQTVYVQHPITFLDRPIQMCCPSCNKMIVSQLSYNAGALTWLSCGSLCLLGVHSGLLLHPLLRGCPAGRGPLLSQLQSSPGHLQAFVGLSQTQREPGAAGSPFHLSSSFTPGGGSALVVSPLQGAHLHVFFWGEYVAKLTNLQTPEIAAWSRA
protein levels of IL-1α, IL-10, MCP-2 and RANTES by Western blot [1]: not altered
effect on IL-1α (cytokine array) [2]: modestly up-regulated
effect on TNF-α (cytokine array) [2]: modestly up-regulated
MCP-1 promoter activity / MCP-1 expression [3]: significantly up-regulated
VEGF gene expression / transcription [4]: did not have any effect

B2: STAT6(B): novel protein, Signal transducer and activator of transcription, SEQ ID NO: 2; full length DNA transfected (protein, listed as Homo sapiens)
chain: MARRNPSPPLQRLRDWGHHHCPCHPGPGWLSTDGEHPAILCQRPVHSLTGGPNPGSCSAQKSLSQEAQGGGFPEPLQAWAGTGCSDSFLSPTSSLLPAALLSLPVCHPDVTPYFIAVLLLLPHDPCPPFPPPFLPNPRALHGCLFLLTTAEQMGKDGRGYVPATIKMTVERGVWWYGQWVGQGLVVLICRKEGWHQPLVSHMYLLPSSRDQPLPTPELQMPTMVPSYDLGMAPDSSMSMQLGPDMVPQVYPPHSHSIPPYQGLSPEESVNVLSAFQEPHLQMPPSLGQMSLSFDQPHPQGLLPCQPQEHAVSSPDPLLCSDVTTVEDSCLSQPVTAFPQGTWIGEDIFPPLLPPTEQDLTKLLLEGQGESGGGSLGAQPLLQPSHYGQSGISMSHMDLRANPSW
protein levels of IL-1α, IL-10, MCP-2 and RANTES by Western blot [1]: modest induction of all except MCP-2
TNF-α promoter luciferase activity [5]: did not substantially change
effect on GRO (cytokine array) [2]: up-regulated
effect on IL-1α (cytokine array) [2]: up-regulated
effect on IL-10 (cytokine array) [2]: up-regulated
effect on RANTES (cytokine array) [2]: up-regulated
MCP-1 promoter activity / MCP-1 expression [3]: significantly up-regulated
VEGF gene expression / transcription [4]: significantly upregulated
in vitro angiogenesis/tubulogenesis [6]: stimulated

B3: STAT6(A): known gene STAT6 (GenBank), referred to as STAT6(A) in this study (protein, UniProt P42226 2-847, looked up)
Signal transducer and …: SLWGLVSKMPPEKVQRLYVDFPQHLRHLLGDWLESQPWEFLVGSDAFCCNLASALLSDTVQHLQASVGEQGEGSTILQHISTLESIYQRDPLKLVATFRQILQGEKKAVMEQFRHLPMPFHWKQEELKFKTGLRRLQHRVGEIHLLREALQKGAEAGQVSLHSLIETPANGTGPSEALAMLLQETTGELEAAKALVLKRIQIWKRQQQLAGNGAPFEESLAPLQERCESLVDIYSQLQQEVGAAGGELEPKTRASLTGRLDEVLRTLVTSCFLVEKQPPQVLKTQTKFQAGVRFLLGLRFLGAPAKPPLVRADMVTEKQARELSVPQGPGAGAESTGEIINNTVPLENSIPGNCCSALFKNLLLKKIKRCERKGTESVTEEKCAVLFSASFTLGPGKLPIQLQALSLPLVVIVHGNQDNNAKATILWDNAFSEMDRVPFVVAERVPWEKMCETLNLKFMAEVGTNRGLLPEHFLFLAQKIFNDNSLSMEAFQHRSVSWSQFNKEILLGRGFTFWQWFDGVLDLTKRCLRSYWSDRLIIGFISKQYVTSLLLNEPDGTFLLRFSDSEIGGITIAHVIRGQDGSPQIENIQPFSAKDLSIRSLGDRIRDLAQLKNLYPKKPKDEAFRSHYKPEQMGKDGRGYVPATIKMTVERDQPLPTPELQMPTMVPSYDLGMAPDSSMSMQLGPDMVPQVYPPHSHSIPPYQGLSPEESVNVLSAFQEPHLQMPPSLGQMSLPFDQPHPQGLLPCQPQEHAVSSPDPLLCSDVTMVEDSCLSQPVTAFPQGTWIGEDIFPPLLPPTEQDLTKLLLEGQGESGGGSLGAQPLLQPSHYGQSGISMSHMDLRANPSW
protein levels of IL-1α, IL-10, MCP-2 and RANTES by Western blot [1]: not altered
